From the supplement of paper PMC10126150
± gives the standard deviation of the averaged measurements.

Test system: ATP
Test: switch fluorescence ratio, 500 uM ATP over buffer (Cy3 cluster intensity, sum of 5 cycles each) (fold (ratio)); higher = stronger signal-on switching upon ATP binding; sequences stand for … in TCGTCGGCAGCGTCAGATGTGTATAAGAGACAGTTTTTTTTTTTTTTTTTTTTTTTTT…TC
Details: aptamer strand: ATP DNA aptamer (quencher-CACCTGGGGGAGTATTGCGGAGGAAGG + anchor), 100 nM annealed; ATP concentration: 500 uM
How it was run: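 The fluorescence ratio divides summed target-cycle Cy3 intensity by summed buffer-cycle Cy3 intensity for each cluster and is averaged per switch-domain sequence. Cy3-labelled switching-strand clusters on a modified Illumina MiSeq flow-cell were annealed to 100 nM quencher-labelled ATP aptamer, then imaged in selection buffer and again after 15 min with 500 uM ATP at 22 °C. Five such cycles were run, with NaOH stripping and re-annealing between them, and clusters outside 100-1000 RFU were excluded.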
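Further: ATP exposure 15 min at 22 °C before imaging.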

| Sequence | switch fluorescence ratio |
| --- | --- |
| GGACGGGGGT | 1.01 ± 0.038 |
| GGACGGTAGG | 0.979 ± 0.011 |
| GGACGTAAGG | 0.977 ± 0.016 |
| GGACGTTGAG | 0.985 ± 0.021 |
| GGACTATTTG | 1.003 ± 0.0011 |
| GGACTCAGAA | 0.9867 ± 0.0045 |
| GGACTCGCTC | 1.02 ± 0.018 |
| GGACTCGGGC | 0.985 ± 0.031 |
| GGACTGAAGT | 1.02 ± 0.038 |
| GGACTGGAAG | 1.19 ± 0.051 |
| GGACTTCCTG | 1.003 ± 0.0065 |
| GGACTTTTGT | 0.984 ± 0.02 |
| GGAGAAATCG | 1.06 ± 0.012 |
| GGAGAAATCT | 1.12 ± 0.022 |
| GGAGAATTAT | 0.991 ± 0.024 |
| GGAGACTGGT | 1.02 ± 0.063 |
| GGAGACTTTA | 1.006 ± 0.0056 |
| GGAGAGGGCG | 0.991 ± 0.066 |
| GGAGAGGGTT | 1.022 ± 0.0044 |
| GGAGATTGCG | 0.96 ± 0.046 |
| GGAGATTTGT | 1.01 ± 0.032 |
| GGAGATTTTT | 0.977 ± 0.044 |
| GGAGCAGCTG | 0.97336 ± 0.00053 |

| Sequence | switch fluorescence ratio |
| --- | --- |
| GGAGCAGGGA | 0.963 ± 0.025 |
| GGAGCCCCGA | 0.9814 ± 0.0076 |
| GGAGCGGGGA | 1 ± 0.084 |
| GGAGCTGCGG | 0.9914 ± 0.0038 |
| GGAGCTGGGA | 1.0097 ± 0.00033 |
| GGAGGAAATG | 0.949 ± 0.011 |
| GGAGGAAATT | 1.01 ± 0.082 |
| GGAGGATTTA | 0.984 ± 0.042 |
| GGAGGCACTG | 0.9996 ± 0.0095 |
| GGAGGGATCT | 0.966 ± 0.011 |
| GGAGGGATGG | 1.13 ± 0.2 |
| GGAGGGCGGG | 1.02 ± 0.021 |
| GGAGGGGAGG | 0.991 ± 0.029 |
| GGAGGGGATT | 0.982 ± 0.03 |
| GGAGGGGCAA | 1.24 ± 0.032 |
| GGAGGGGCGA | 1.1 ± 0.14 |
| GGAGGGGGAC | 3.13 ± 3.1 |
| GGAGGGGGAG | 0.9817 ± 0.0084 |
| GGAGGGTTAC | 0.972 ± 0.016 |
| GGAGGTGG | 0.942 ± 0.026 |
| GGAGGTGGTT | 0.981 ± 0.018 |
| GGAGGTGTTA | 1.01 ± 0.031 |
| GGAGGTTTAA | 1.01 ± 0.024 |

| Sequence | switch fluorescence ratio |
| --- | --- |
| GGAGTACAAA | 1.03 ± 0.033 |
| GGAGTATAAG | 0.957 ± 0.012 |
| GGAGTATCCT | 0.981 ± 0.016 |
| GGAGTATTGG | 1.02 ± 0.022 |
| GGAGTCGACG | 1.02 ± 0.012 |
| GGAGTCGTTT | 0.987 ± 0.027 |
| GGAGTCTGGG | 0.981 ± 0.021 |
| GGAGTGCCGT | 1 ± 0.093 |
| GGAGTGCTGG | 0.995 ± 0.032 |
| GGAGTGGTTC | 0.999 ± 0.013 |
| GGAGTTATAT | 1.105 ± 0.01 |
| GGAGTTGCAG | 0.975 ± 0.063 |
| GGAGTTGGAT | 0.98205 ± 0.00015 |
| GGAGTTTAGC | 1.02 ± 0.029 |
| GGAGTTTTGT | 0.9614 ± 0.0087 |
| GGATAAAATT | 0.996 ± 0.015 |
| GGATAAGAAT | 1.02 ± 0.052 |
| GGATAATGAG | 0.961 ± 0.028 |
| GGATAGGACA | 1 ± 0.04 |
| GGATAGGTAC | 1.05 ± 0.04 |
| GGATAGGTAT | 1.02 ± 0.066 |
| GGATAGTGCT | 0.993 ± 0.012 |
| GGATATGGGT | 0.966 ± 0.011 |

| Sequence | switch fluorescence ratio |
| --- | --- |
| GGATATTGGC | 0.977 ± 0.092 |
| GGATATTGTC | 0.991 ± 0.024 |
| GGATCACACT | 1.02 ± 0.012 |
| GGATCAGAGA | 1.08 ± 0.023 |
| GGATCCTGGG | 0.993 ± 0.022 |
| GGATCTAGGG | 0.981 ± 0.018 |
| GGATCTGTCG | 0.98 ± 0.037 |
| GGATCTTGGC | 1.02 ± 0.025 |
| GGATCTTGTG | 1.01 ± 0.021 |
| GGATGACAGA | 0.969 ± 0.01 |
| GGATGAGCTG | 0.978 ± 0.052 |
| GGATGCAGCT | 1.12 ± 0.1 |
| GGATGCGCCT | 1.06 ± 0.15 |
| GGATGCTGAT | 1 ± 0.047 |
| GGATGGAGGC | 0.987 ± 0.059 |
| GGATGGGATA | 1 ± 0.016 |
| GGATGGGCTA | 0.999 ± 0.025 |
| GGATGGGGGC | 0.992 ± 0.023 |
| GGATGGGTGT | 1.02 ± 0.034 |
| GGATGGTATG | 1.01 ± 0.015 |
| GGATGGTGCA | 0.94 ± 0.062 |
| GGATGGTGGG | 1.01 ± 0.042 |
| GGATGTAAGT | 0.97 ± 0.017 |

| Sequence | switch fluorescence ratio |
| --- | --- |
| GGATGTAGGG | 0.999 ± 0.029 |
| GGATGTGTAA | 1.007 ± 0.007 |
| GGATGTGTTT | 0.999 ± 0.029 |
| GGATTAAAAG | 1.01 ± 0.067 |
| GGATTAATTT | 0.98006 ± 0.00058 |
| GGATTACTAA | 0.99 ± 0.029 |
| GGATTAGGGT | 0.975 ± 0.019 |
| GGATTATGAA | 0.994 ± 0.023 |
| GGATTATGGC | 0.943 ± 0.061 |
| GGATTCTGGA | 0.991 ± 0.031 |
| GGATTGGACG | 0.976 ± 0.016 |
| GGATTGGGCG | 0.986 ± 0.026 |
| GGATTGGGGT | 0.986 ± 0.04 |
| GGATTGTAAT | 0.9956 ± 0.0034 |
| GGATTGTGAA | 1 ± 0.025 |
| GGATTGTTTA | 1 ± 0.014 |
| GGATTTAGAA | 0.975 ± 0.032 |
| GGATTTAGGC | 0.977 ± 0.029 |
| GGATTTAGGT | 0.994 ± 0.049 |
| GGATTTGGCC | 1 ± 0.043 |
| GGATTTGTTA | 0.983 ± 0.039 |
| GGATTTTAGC | 0.9835 ± 0.0024 |
| GGATTTTAGG | 0.997 ± 0.019 |

| Sequence | switch fluorescence ratio |
| --- | --- |
| GGATTTTGGC | 0.99 ± 0.019 |
| GGCAACGCGC | 0.997 ± 0.031 |
| GGCAACTTCT | 1.02 ± 0.011 |
| GGCAATAGGG | 1.14 ± 0.056 |
| GGCAATCGAA | 1.1145 ± 0.00045 |
| GGCAATGGTT | 1.1 ± 0.11 |
| GGCACATAAT | 1.08 ± 0.087 |
| GGCACGGAGG | 0.989 ± 0.019 |
| GGCAGAAAAA | 0.9949 ± 0.0018 |
| GGCAGAGCTG | 1.016 ± 0.01 |
| GGCAGGGACT | 1 ± 0.033 |
| GGCAGGGATT | 1.01 ± 0.014 |
| GGCAGGGGGG | 1.04 ± 0.056 |
| GGCAGTCCTT | 1.005 ± 0.0044 |
| GGCAGTTGGG | 0.9868 ± 0.007 |
| GGCAGTTGTG | 0.986 ± 0.024 |
| GGCATAGAAT | 1.001 ± 0.0012 |
| GGCATAGATT | 0.976 ± 0.066 |
| GGCATAGGTA | 1.01 ± 0.012 |
| GGCATGCCAT | 0.9908 ± 0.0077 |
| GGCATGTGCG | 1.02 ± 0.031 |
| GGCATTAATT | 1.01 ± 0.048 |
| GGCATTATAT | 0.9984 ± 0.0058 |

| Sequence | switch fluorescence ratio |
| --- | --- |
| GGCATTGGGG | 1.03 ± 0.029 |
| GGCATTTGAC | 1.02 ± 0.006 |
| GGCATTTGTG | 1 ± 0.025 |
| GGCATTTTTG | 1.03 ± 0.015 |
| GGCCAAGGAT | 1.01 ± 0.028 |
| GGCCAAGTTG | 0.994 ± 0.017 |
| GGCCACGGGG | 0.991 ± 0.0054 |
| GGCCATCCAG | 1.01 ± 0.036 |
| GGCCATTTTT | 1.01 ± 0.03 |
| GGCCCAGCGC | 0.976 ± 0.0011 |
| GGCCCAGGAT | 1.07 ± 0.094 |
| GGCCCAGGGA | 1.18 ± 0.18 |
| GGCCCCAAAT | 0.9817 ± 0.0041 |
| GGCCCCTGGC | 1.04 ± 0.063 |
| GGCCCCTTAG | 1.02 ± 0.03 |
| GGCCCGGGTT | 0.994 ± 0.019 |
| GGCCCGTACT | 1.04 ± 0.042 |
| GGCCCTGCGA | 1.06 ± 0.056 |
| GGCCGAAGGG | 1.03 ± 0.066 |
